# T1: mouse soluble ST2 (sST2) (mouse, UniProt P14719-2 27-337, N-linked glycans (shown by PNGase F))
# T1 sequence: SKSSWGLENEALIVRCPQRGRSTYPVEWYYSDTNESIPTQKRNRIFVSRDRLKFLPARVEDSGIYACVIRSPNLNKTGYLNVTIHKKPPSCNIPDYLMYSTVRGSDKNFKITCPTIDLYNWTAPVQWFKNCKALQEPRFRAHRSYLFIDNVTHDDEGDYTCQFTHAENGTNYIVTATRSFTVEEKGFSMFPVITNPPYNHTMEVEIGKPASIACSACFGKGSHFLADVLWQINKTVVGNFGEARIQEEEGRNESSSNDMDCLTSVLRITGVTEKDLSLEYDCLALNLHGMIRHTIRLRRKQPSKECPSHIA
# Molecular target: T1, mouse soluble ST2 (sST2)
# Assay: ITC
binder,measurement,value
mouse IL-33 (residues 109-266) (ligand) SIQGTSLLTQSPASLSTYNDQSVSFVLENGCYVINVDDSGKDQEQDQVLLRYYESPCPASQSGDGVDGKKLMVNMSPIKDTDIWLHANDKDYSVELQRGDVSPPEQAFFVLHKKSSDFVSFECKNLPGTYIGVKDNQLALVEEKDESCNNIMFKLSKI,Kd,4.59 nM

# Reference: PMC7610802 (The Journal of allergy and clinical immunology, 2019)
